In article PMC4963399:

T1: rhodopsin, P15409
T1 chain: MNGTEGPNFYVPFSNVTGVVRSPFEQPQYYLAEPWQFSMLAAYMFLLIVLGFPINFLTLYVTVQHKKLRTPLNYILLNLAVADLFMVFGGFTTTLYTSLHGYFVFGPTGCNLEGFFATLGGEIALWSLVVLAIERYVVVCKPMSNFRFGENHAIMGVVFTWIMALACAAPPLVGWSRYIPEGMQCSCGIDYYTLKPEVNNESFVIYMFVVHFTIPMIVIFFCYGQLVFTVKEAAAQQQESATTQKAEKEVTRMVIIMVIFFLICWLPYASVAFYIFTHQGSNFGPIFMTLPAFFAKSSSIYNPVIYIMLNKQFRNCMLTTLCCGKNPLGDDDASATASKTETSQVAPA

B1: peripherin-2, N-terminally tagged with citrine, P15499 1-346 (natural protein)
chain: MALLKVKFDQKKRVKLAQGLWLMNWLSVLAGIVLFSLGLFLKIELRKRSEVMNNSESHFVPNSLIGVGVLSCVFNSLAGKICYDALDPAKYAKWKPWLKPYLAVCIFFNVILFLVALCCFLLRGSLESTLAYGLKNGMKYYRDTDTPGRCFMKKTIDMLQIEFKCCGNNGFRDWFEIQWISNRYLDFSSKEVKDRIKSNVDGRYLVDGVPFSCCNPSSPRPCIQYQLTNNSAHYSYDHQTEELNLWLRGCRAALLNYYSSLMNSMGVVTLLVWLFEVSITAGLRYLHTALESVSNPEDPECESEGWLLEKSVPETWKAFLESFKKLGKSNQVEAEGADAGPAPEAG
B2: peripherin-2, C-terminally tagged with citrine, P15499 1-346 (natural protein)
chain: B1 chain

Molecular target: T1, rhodopsin, P15409
Test: FRET or BRET; three cube sensitized acceptor emission FRET on single isolated rod outer segments of C57BL/6J mice co-transduced with two rAAV vectors (cerulean and citrine fusions); FRET imaging solution pH 7.4; FRET efficiency EA as mean ± SEM
Conditions: remark: other sources report otherwise

Row | Binder | FRET efficiency EA
1 | B1 | 4.52
2 | B2 | 2.76
